No end group written: not given here. *: point of attachment. Biotin = O=C1N[C@H]2[C@H](CS[C@H]2CCCCC(=O)*)N1

Experiment [1] deals with T1, Ubiquitin (ubiquitination reactions, HDX-MS and reverse-phase HPLC) (human, UniProt P0CG48 1-76).
T1 construct: ubiquitin, human; the 76-residue ubiquitin unit cut from its precursor; That the HDX/HPLC ubiquitin is the Boston Biochem one is surmised; also called ubiquitin protein; native ubiquitin; source: bought: Boston Biochem (ubiquitination reactions)
Put plainly: HDX-MS; global deuteration of intact ubiquitin, 2 uM, ubiquitin to peptide 1:2 and 1:5, room temperature, 1 min in deuterated water with 0.1% DMSO. The note with it: both partners purified.

Experiment [2] has as its target T2, uniformly labeled 15N-human ubiquitin (human, UniProt P0CG48 1-76, uniformly 15N-labeled).
T2 construct: ubiquitin, human; the 76-residue ubiquitin unit cut from its precursor; also called N15-labeled Ubiquitin; source: bought: Asla Biotech (Latvia)
Briefly: NMR titration; 1H-15N HSQC and 15N relaxation of 0.5 mM 15N-ubiquitin, 10 mM sodium phosphate pH 5.0, 298 K, without and with peptide (0.64 mg peptide 12 or 0.7 mg peptide 37 in 0.55 ml). The note with it: both partners purified.

B1: peptide-37 (Biotin-SGSG-FIPAQLHFHWRS-amide) (peptide)
peptide: Biotin-SGSGFIPAQLHFHWRS-NH2
SMILES: CC[C@H](C)[C@H](NC(=O)[C@H](Cc1ccccc1)NC(=O)CNC(=O)[C@H](CO)NC(=O)CNC(=O)[C@H](CO)NC(=O)CCCC[C@@H]1SC[C@@H]2NC(=O)N[C@@H]21)C(=O)N1CCC[C@H]1C(=O)N[C@@H](C)C(=O)N[C@@H](CCC(N)=O)C(=O)N[C@@H](CC(C)C)C(=O)N[C@@H](Cc1c[nH]cn1)C(=O)N[C@@H](Cc1ccccc1)C(=O)N[C@@H](Cc1c[nH]cn1)C(=O)N[C@@H](Cc1c[nH]c2ccccc12)C(=O)N[C@@H](CCCNC(=N)N)C(=O)N[C@@H](CO)C(N)=O
notes: spacer; phage-selected 12-mer; also called synthetic peptide 37; source: synthetic peptide (Chiron Mimotopes, Australia)
Regarding B1, in experiment [1], the binding result is “binds”.

B2: Non-tagged peptide-12 (AKFDMHIATRLS), non-biotinylated with a C-terminal NH2 (peptide)
peptide: AKFDMHIATRLS-NH2
notes: phage-selected 12-mer; source: synthetic peptide
Regarding B2, in experiment [2], the binding result is on record as “binds”.

B3: Non-tagged Peptide-37 (FIPAQLHFHWRS), non-biotinylated with a C-terminal NH2 (peptide)
peptide: FIPAQLHFHWRS-NH2
notes: as for B2
On to B3, for which the binding result in experiment [2] is “binds”.

B4: peptide-12 (Biotin-SGSG-AKFDMHIATRLS-amide) (peptide)
peptide: Biotin-SGSGAKFDMHIATRLS-NH2
SMILES: CC[C@H](C)[C@H](NC(=O)[C@H](Cc1c[nH]cn1)NC(=O)[C@H](CCSC)NC(=O)[C@H](CC(=O)O)NC(=O)[C@H](Cc1ccccc1)NC(=O)[C@H](CCCCN)NC(=O)[C@H](C)NC(=O)CNC(=O)[C@H](CO)NC(=O)CNC(=O)[C@H](CO)NC(=O)CCCC[C@@H]1SC[C@@H]2NC(=O)N[C@@H]21)C(=O)N[C@@H](C)C(=O)N[C@H](C(=O)N[C@@H](CCCNC(=N)N)C(=O)N[C@@H](CC(C)C)C(=O)N[C@@H](CO)C(N)=O)[C@@H](C)O
notes: spacer; phage-selected 12-mer; also called synthetic peptide 12; source: synthetic peptide (Chiron Mimotopes, Australia)
On to B4, for which, in experiment [1], the binding result is “binds”.
